According to patent US20230024933:

Key:
[1] = biological target: T1, phosphoserine substrate peptide RRApSVA
T1 chain: RRASVA

[2] = biological target: histone γH2A.X^pY142, endogenous in primary murine fibroblast cultures, P27661
[3] = biological target: T2, phosphotyrosine substrate peptide ENDpYINASL
T2 chain: ENDYINASL

B1: mutant EYA1A in which exon 10 had been removed (EYA1AΔe10) (protein)
chain: MLLFPQVAVKTEPMSSSETASTTADGSLNNFSGSAIGSSSFSPRPTHQFSPPQIYPSNRPYPHILPTPSSQTMAAYGQTQFTTGMQQATAYATYPQPGQPYGISSYGALWAGIKTEGGLSQSQSPGQTGFLSYGTSFSTPQPGQAPYSYQMQGSSFTTSSGIYTGNNSLTNSSGFNSSQQDYPSYPSFGQGQYAQYYNSSPYPAHYMTSSNTSPTTPSTNATYQLQEPPSGITSQAVTDPTAEYSTIHSPSTPIKDSDSDRLRRGSDGKSRGRGRRNNNPSPPPDSDLERVFIWDLDETIIVFHSLLTGSYANRYGRECDQVHIDDVSSDDNGQDLSTYNFGTDGFPAAATSANLCLATGVRGGVDWMRKLAFRYRRVKEIYNTYKNNVGGLLGPAKREAWLQLRAEIEALTDSWLTLALKALSLIHSRTNCVNILVTTTQLIPALAKVLLYGLGIVFPIENIYSATKIGKESCFERIIQRFGRKVVYVVIGDGVEEEQGAKKHAMPFWRISSHSDLMALHHALELEYL
In the case of B1, the “serine phosphatase activity (dephosphorylation assay)” value [1] is reported as “dephosphorylation assays using the synthetic serine phosphatase substrate RRApSVA demonstrated superior serine phosphatase activity” and the “γH2A.X^pY142 foci per nucleus after NCS exposure” value [2] is reported as “deletion of EYA1A critical exon 10 (EYA146e10) normalized premature γH2A.X^pY142 dephosphorylation and γH2A.X clearance”.

B2: EYA1 isoform A (human splice variant EYA1A, exon 10 included) (protein)
chain: MLLFPQVAVKTEPMSSSETASTTADGSLNNFSGSAIGSSSFSPRPTHQFSPPQIYPSNRPYPHILPTPSSQTMAAYGQTQFTTGMQQATAYATYPQPGQPYGISSYGALWAGIKTEGGLSQSQSPGQTGFLSYGTSFSTPQPGQAPYSYQMQGSSFTTSSGIYTGNNSLTNSSGFNSSQQDYPSYPSFGQGQYAQYYNSSPYPAHYMTSSNTSPTTPSTNATYQLQEPPSGITSQAVTDPTAEYSTIHSPSTPIKDSDSDRLRRGSDGKSRGRGRRNNNPSPPPDSDLERVFIWDLDETIIVFHSLLTGSYANRYGRDPPTSVSLGLRMEEMIFNLADTHLFFNDLEECDQVHIDDVSSDDNGQDLSTYNFGTDGFPAAATSANLCLATGVRGGVDWMRKLAFRYRRVKEIYNTYKNNVGGLLGPAKREAWLQLRAEIEALTDSWLTLALKALSLIHSRTNCVNILVTTTQLIPALAKVLLYGLGIVFPIENIYSATKIGKESCFERIIQRFGRKVVYVVIGDGVEEEQGAKKHAMPFWRISSHSDLMALHHALELEYL
In the case of B2, the “tyrosine phosphatase activity (dephosphorylation assay with phosphorylated peptide)” value [3] is reported as “confirmed increased tyrosine phosphatase activity of EYA1A” and the “γH2A.X^pY142 foci per nucleus after NCS exposure” value [2] is reported as “EYA1A overexpression induced premature γH2A.X^pY142 dephosphorylation and clearance of DSBs”.
